Experimental findings from PMC2831303 are described below.

Series [1] concerns the target NorRΔGAF (GAF domain deleted form of E. coli NorR) (E. coli). In words: negative-stain electron microscopy.
The target is the same in series [2]. Nature of the series: SEC. A general note: SEC sorts molecules by how far they enter the pores of the column.
Series [3] has the same target.
The target of series [4] is T1, NorRΔGAF (Escherichia coli, UniProt P37013 178-504).
T1 sequence: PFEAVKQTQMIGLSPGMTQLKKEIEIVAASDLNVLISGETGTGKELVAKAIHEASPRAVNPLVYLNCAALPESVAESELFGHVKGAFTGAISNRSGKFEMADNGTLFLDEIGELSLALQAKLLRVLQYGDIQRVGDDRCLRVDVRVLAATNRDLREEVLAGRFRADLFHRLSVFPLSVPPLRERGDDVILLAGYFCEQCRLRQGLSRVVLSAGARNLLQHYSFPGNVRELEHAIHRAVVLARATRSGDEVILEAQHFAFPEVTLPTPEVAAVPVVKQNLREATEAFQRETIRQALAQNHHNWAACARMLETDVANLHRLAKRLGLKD
Nature of the series: EMSA.

Series [5] has as its target T1, NorRΔGAF. In words: gel filtration.

Turning to “NorRΔGAF (GAF domain deleted form of E. coli NorR) (domain or fragment)”, the stoichiometry N (commonly a count of units in the complex or per binding partner) in series [1] turned out to be 6; in series [2], 2. This molecule registered an ATPase activity against NorRΔGAF concentration with 21 bp NorR1 DNA (1:1): Keff in series [3] of 8.4 µM.

B1: NorR123 66 bp (dsDNA)
DNA 1: TCACTGTCAATTTGACTATAGATATTGTCATATCGACCATTTGATTGATAGTCATTTTGACTACTC
DNA 2: GAGTAGTCAAAATGACTATCAATCAAATGGTCGATATGACAATATCTATAGTCAAATTGACAGTGA
As to B1, the Kd (usually the free concentration of one partner at which half of the binding sites on the other are occupied at equilibrium, for simple one-to-one binding) in series [4] was found to be 174 nM.

B2: NorR1 21 bp (dsDNA)
DNA 1: GATAGTCATTTTGACTACTCA
DNA 2: TGAGTAGTCAAAATGACTATC
Regarding B2, the binding result in series [5] is “binds”.
